Molecular target: full length human galectin-3 (hGal3), Cys173 mutated to Thr (human, UniProt P17931 1-250, Cys173 mutated to Thr)
Assay: SPR

Sequence of full length human galectin-3 (hGal3), Cys173 mutated to Thr (P17931 other isoform, or with tags, fused parts or gaps Cys173 mutated to Thr): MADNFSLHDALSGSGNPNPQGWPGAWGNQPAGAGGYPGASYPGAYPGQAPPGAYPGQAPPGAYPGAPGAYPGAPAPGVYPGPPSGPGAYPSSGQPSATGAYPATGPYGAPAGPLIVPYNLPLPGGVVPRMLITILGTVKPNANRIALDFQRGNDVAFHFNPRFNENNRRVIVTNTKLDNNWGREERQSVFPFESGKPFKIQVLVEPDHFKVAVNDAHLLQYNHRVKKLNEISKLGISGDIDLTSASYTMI

Kd: 0.31 nM
B1: GaletuzuFab-PAS200-Cys (Fab, V domains shown)
VH: QIQLVQSGAEVKKPGESLKISCKVSGYTFTDYAIHWVRQMPGKGLKWMGWINTYTGKPIYADDFKGQVIISLDKSINTAYLQWSSLKASDTAIYYCARGTMMASLDYWGQGTTVTVSS
VL: DVVMTQSPSSLSASVGDRVTITCKSSQSLVHSDGKTYLSWIQQKPGKAPKGLIYLVSKLDSGVPSRFSGSGSETDFTLTISSLQPEDSATYYCWQATHFPLTFGPGTKVDIR

Source: article PMC8016950 (2021)
